Reference: article PMC3220584 (The Journal of Biological Chemistry, 2011)

Target: the molecule itself
Experiment: SEC-MALS

B1: human collagen VI α3(VI) N-terminal N9-N1 region (domain or fragment, UniProt P12111 237-2028, looked up)
chain: AQDSADIIFLIDGSNNTGSVNFAVILDFLVNLLEKLPIGTQQIRVGVVQFSDEPRTMFSLDTYSTKAQVLGAVKALGFAGGELANIGLALDFVVENHFTRAGGSRVEEGVPQVLVLISAGPSSDEIRYGVVALKQASVFSFGLGAQAASRAELQHIATDDNLVFTVPEFRSFGDLQEKLLPYIVGVAQRHIVLKPPTIVTQVIEVNKRDIVFLVDGSSALGLANFNAIRDFIAKVIQRLEIGQDLIQVAVAQYADTVRPEFYFNTHPTKREVITAVRKMKPLDGSALYTGSALDFVRNNLFTSSAGYRAAEGIPKLLVLITGGKSLDEISQPAQELKRSSIMAFAIGNKGADQAELEEIAFDSSLVFIPAEFRAAPLQGMLPGLLAPLRTLSGTPEVHSNKRDIIFLLDGSANVGKTNFPYVRDFVMNLVNSLDIGNDNIRVGLVQFSDTPVTEFSLNTYQTKSDILGHLRQLQLQGGSGLNTGSALSYVYANHFTEAGGSRIREHVPQLLLLLTAGQSEDSYLQAANALTRAGILTFCVGASQANKAELEQIAFNPSLVYLMDDFSSLPALPQQLIQPLTTYVSGGVEEVPLAQPESKRDILFLFDGSANLVGQFPVVRDFLYKIIDELNVKPEGTRIAVAQYSDDVKVESRFDEHQSKPEILNLVKRMKIKTGKALNLGYALDYAQRYIFVKSAGSRIEDGVLQFLVLLVAGRSSDRVDGPASNLKQSGVVPFIFQAKNADPAELEQIVLSPAFILAAESLPKIGDLHPQIVNLLKSVHNGAPAPVSGEKDVVFLLDGSEGVRSGFPLLKEFVQRVVESLDVGQDRVRVAVVQYSDRTRPEFYLNSYMNKQDVVNAVRQLTLLGGPTPNTGAALEFVLRNILVSSAGSRITEGVPQLLIVLTADRSGDDVRNPSVVVKRGGAVPIGIGIGNADITEMQTISFIPDFAVAIPTFRQLGTVQQVISERVTQLTREELSRLQPVLQPLPSPGVGGKRDVVFLIDGSQSAGPEFQYVRTLIERLVDYLDVGFDTTRVAVIQFSDDPKVEFLLNAHSSKDEVQNAVQRLRPKGGRQINVGNALEYVSRNIFKRPLGSRIEEGVPQFLVLISSGKSDDEVDDPAVELKQFGVAPFTIARNADQEELVKISLSPEYVFSVSTFRELPSLEQKLLTPITTLTSEQIQKLLASTRYPPPAVESDAADIVFLIDSSEGVRPDGFAHIRDFVSRIVRRLNIGPSKVRVGVVQFSNDVFPEFYLKTYRSQAPVLDAIRRLRLRGGSPLNTGKALEFVARNLFVKSAGSRIEDGVPQHLVLVLGGKSQDDVSRFAQVIRSSGIVSLGVGDRNIDRTELQTITNDPRLVFTVREFRELPNIEERIMNSFGPSAATPAPPGVDTPPPSRPEKKKADIVFLLDGSINFRRDSFQEVLRFVSEIVDTVYEDGDSIQVGLVQYNSDPTDEFFLKDFSTKRQIIDAINKVVYKGGRHANTKVGLEHLRVNHFVPEAGSRLDQRVPQIAFVITGGKSVEDAQDVSLALTQRGVKVFAVGVRNIDSEEVGKIASNSATAFRVGNVQELSELSEQVLETLHDAMHETLCPGVTDAAKACNLDVILGFDGSRDQNVFVAQKGFESKVDAILNRISQMHRVSCSGGRSPTVRVSVVANTPSGPVEAFDFDEYQPEMLEKFRNMRSQHPYVLTEDTLKVYLNKFRQSSPDSVKVVIHFTDGADGDLADLHRASENLRQEGVRALILVGLERVVNLERLMHLEFGRGFMYDRPLRLNLLDLDYELAEQLDNIAEKA
stoichiometry N: 2
